Changes are numbered by the printed parent chain. Numbers in names are those of the source.
T1: human FcγRIIaR extracellular domain with C-terminal His-tag (human, UniProt P12318 34-217)
T1 construct: Expressed in FreeStyle 293 cells and purified; also called human FcγRIIa (type R); FcgRIIaR; not shown: C-terminal His-tag
T1 chain: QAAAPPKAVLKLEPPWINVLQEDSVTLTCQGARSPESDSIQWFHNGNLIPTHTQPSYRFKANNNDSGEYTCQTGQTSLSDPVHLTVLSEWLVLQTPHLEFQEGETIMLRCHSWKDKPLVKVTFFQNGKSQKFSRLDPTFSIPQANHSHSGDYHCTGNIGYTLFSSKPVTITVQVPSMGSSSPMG

T2: cynomolgus monkey FcγRIIa2 extracellular domain with C-terminal His-tag (cynomolgus monkey)
T2 construct: Expressed in FreeStyle 293 cells and purified; also called cyno FcγRIIa2; cynoFcgRIIa2; not shown: C-terminal His-tag
T2 chain: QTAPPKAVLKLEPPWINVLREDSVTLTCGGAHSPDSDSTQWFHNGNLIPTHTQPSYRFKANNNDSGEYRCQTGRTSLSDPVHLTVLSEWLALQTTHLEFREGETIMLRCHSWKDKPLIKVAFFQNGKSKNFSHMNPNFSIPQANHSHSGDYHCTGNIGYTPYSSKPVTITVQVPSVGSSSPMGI

T3: human FcγRIIaH extracellular domain with C-terminal His-tag (human, UniProt P12318 34-217)
T3 construct: Expressed in FreeStyle 293 cells and purified; also called human FcγRIIa (type H); FcgRIIaH; not shown: C-terminal His-tag
T3 sequence: T1 chain with R134H

T4: cynomolgus monkey FcγRIIa3 extracellular domain with C-terminal His-tag (cynomolgus monkey)
T4 construct: Expressed in FreeStyle 293 cells and purified; also called cyno FcγRIIa3; cynoFcgRIIa3; not shown: C-terminal His-tag
T4 chain: T2 chain with K127I, N130K, H133P, Q142R

T5: cynomolgus monkey FcγRIIa1 extracellular domain with C-terminal His-tag (cynomolgus monkey)
T5 construct: Expressed in FreeStyle 293 cells and purified; also called cyno FcγRIIa1; cynoFcgRIIa1; not shown: C-terminal His-tag
T5 chain: T2 chain with T95P, A121T, K127I, S128A, N130K, N135D, Q142R

T6: cynomolgus monkey FcγRIIIaS extracellular domain with C-terminal His-tag (cynomolgus monkey, UniProt Q8SPW2 21-206 at identity 1.00))
T6 construct: Expressed in FreeStyle 293 cells and purified; also called cyno FcγRIIIaS; cynoFcγRIIIaS; not shown: C-terminal His-tag
T6 chain: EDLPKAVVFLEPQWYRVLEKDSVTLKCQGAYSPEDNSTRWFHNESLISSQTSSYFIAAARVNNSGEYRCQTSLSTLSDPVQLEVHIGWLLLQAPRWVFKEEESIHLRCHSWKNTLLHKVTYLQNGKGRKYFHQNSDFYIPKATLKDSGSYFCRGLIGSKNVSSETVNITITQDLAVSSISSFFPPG

T7: human FcγRIIb extracellular domain with C-terminal His-tag (human, UniProt P31994 43-217)
T7 construct: Expressed in FreeStyle 293 cells and purified; also called humanFcgRIIb; not shown: C-terminal His-tag
T7 sequence: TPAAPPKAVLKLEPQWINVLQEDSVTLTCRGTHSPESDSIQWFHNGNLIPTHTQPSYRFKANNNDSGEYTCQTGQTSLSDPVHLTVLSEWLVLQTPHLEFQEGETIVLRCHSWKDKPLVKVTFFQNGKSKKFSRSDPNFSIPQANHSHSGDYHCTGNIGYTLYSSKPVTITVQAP

T8: cynomolgus monkey FcγRIIb extracellular domain with C-terminal His-tag (cynomolgus monkey)
T8 construct: Expressed in FreeStyle 293 cells and purified; also called cyno FcγRIIb; cynoFcγRIIb; not shown: C-terminal His-tag
T8 chain: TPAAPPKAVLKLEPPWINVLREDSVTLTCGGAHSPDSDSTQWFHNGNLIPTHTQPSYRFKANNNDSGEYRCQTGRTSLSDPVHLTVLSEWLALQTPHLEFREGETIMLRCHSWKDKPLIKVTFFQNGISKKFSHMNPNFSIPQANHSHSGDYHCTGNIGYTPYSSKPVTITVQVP

B1: M103205H795-MY289 / M103202L889-SK1 (antibody, human IgG1, kappa)
heavy: QVTLKESGPVLVKPTETLTLTCTVSGIDLSHDDISWVRQAPGKGLEWVGIISYAGSTYYASWAKGRLTISKDTSKNQVVLTMTNMDPVDTATYYCARGVPAYSHGGDLWGQGTLVTVSSASTKGPSVFPLAPSSKSTSGGTAALGCLVKDYFPEPVTVSWNSGALTSGVHTFPAVLQSSGLYSLSSVVTVPSSSLGTQTYICNVNHKPSNTKVDKKVEPKSCDKTHTCPPCPAPELLNGPSVFLFPPKPKDTLMISRTPEVTCVVVDVSHEDPEVKFNWYVDGVEVHNAKTKPREEQYNSTYRVVSVLTVLHQDWLNGKEYKCKVSNKALPKPIEKTISKAKGQPREPQVYTLPPSREEMTKNQVSLTCLVKGFYPSDIAVEWESNGQPENNYKTTPMVLDSDGSFFLYSKLTVDKSRWQQGNVFSCSVMHEALHNHYTQKSLSLSP
light: DIVMTQSPATLSLSPGERATLSCTSSQSVYHANWLSWFQQKPGQPPKLLIYWASTLAYGVPSRFSGSGSGTDFTLTISSLQPEDAATYYCAGGYGGGRYAFGQGTKVEIKRTVAAPSVFIFPPSDEQLKSGTASVVCLLNNFYPREAKVQWKVDNALQSGNSQESVTEQDSKDSTYSLSSTLTLSKADYEKHKVYACEVTHQGLSSPVTKSFNRGEC
notes: Fc variant of M103205H795-SG1, expressed with M103202L889-SK1 as light chain
B2: M103205H795-MY330 / M103202L889-SK1 (antibody, human IgG1, kappa)
heavy: B1 heavy with L237W, H270E
light: B1 light
notes: as for B1
B3: M103205H795-MY434 / M103202L889-SK1 (antibody, human IgG1, kappa)
heavy: B1 heavy with L237W, H270D, M398P
light: B1 light
notes: as for B1
B4: M103205H795-MY440 / M103202L889-SK1 (antibody, human IgG1, kappa)
heavy: B1 heavy with L237W, H270D, Q297L, M398P
light: B1 light
notes: as for B1
B5: M103205H795-MY538 (Table 19; L235W/G236N/H268D/Q295L/K326T/A330K) / M103202L889-SK1 (antibody, human IgG1, kappa)
heavy: B1 heavy with L237W, H270D, Q297L, K328T, M398P
light: B1 light
notes: Fc variant of M103205H795-SG1, expressed with M103202L889-SK1; the text names MY518 for this set of substitutions; also called probably MY518 of the text

Molecular target: T1, human FcγRIIaR extracellular domain …
Experiment: SPR (Biacore); KD of SG1 divided by KD of the variant for this FcgR;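 note: relative to parent M103205H795-SG1 carrying the SG1 human heavy chain constant region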

KD fold (SG1 = 1) [fold]	Binder
0.8	B1
1.2	B2
0.6	B3
1	B4
1.6	B5

Molecular target: T2, cynomolgus monkey FcγRIIa2 …
Experiment: as above

KD fold (SG1 = 1) [fold]	Binder
3.4	B1
2.3	B2
2.1	B3
2.8	B4
5.7	B5

molecular target: T3, human FcγRIIaH extracellular domain …; experiment: as above

KD fold (SG1 = 1) [fold]	Binder
0.3	B1
0.7	B2
0.4	B3
0.8	B4
0.8	B5

Molecular target: T4, cynomolgus monkey FcγRIIa3 …
Experiment: as above

KD fold (SG1 = 1) [fold]	Binder
2	B1
3.6	B2
2.7	B3
3.5	B4
7.1	B5

Molecular target: T5, cynomolgus monkey FcγRIIa1 …
Experiment: as above

KD fold (SG1 = 1) [fold]	Binder
2.5	B1
1.5	B2
1.1	B3
2	B4
3.6	B5

molecular target: T9, human FcγRIIIaV extracellular domain with C-terminal His-tag (human, UniProt P08637 17-208); experiment: as above
T9 construct: Expressed in FreeStyle 293 cells and purified; also called FcgRIIIaV; not shown: C-terminal His-tag
T9 sequence (P08637 17-208 F176V): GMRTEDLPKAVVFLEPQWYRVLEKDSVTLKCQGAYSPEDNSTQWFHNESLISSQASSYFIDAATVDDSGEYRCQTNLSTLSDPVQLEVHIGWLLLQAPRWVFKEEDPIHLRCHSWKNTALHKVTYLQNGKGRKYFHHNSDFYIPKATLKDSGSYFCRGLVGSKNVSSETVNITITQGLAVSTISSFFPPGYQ

KD fold (SG1 = 1) [fold]	Binder
0.11	B1
0.07	B2
0.05	B3
0.05	B4
0.04	B5

Molecular target: T6, cynomolgus monkey FcγRIIIaS …
Experiment: as above

KD fold (SG1 = 1) [fold]	Binder
0.07	B1
0.05	B2
0.03	B3
0.04	B4
0.09	B5

molecular target: T7, human FcγRIIb extracellular domain with …; experiment: as above

KD fold (SG1 = 1) [fold]	Binder
1.6	B1
6.9	B2
3.3	B3
5.8	B4
9.6	B5

Molecular target: T8, cynomolgus monkey FcγRIIb extracellular …
Experiment: as above

KD fold (SG1 = 1) [fold]	Binder
2.4	B1
3	B2
2.4	B3
5.9	B4
6.9	B5
